Experiments:
DICER (human) = DICER (human) (UniProt Q9UPY3)
[1] = target: DICER;ARGONAUTE2 (AGO2) (human;human) (UniProt Q9UPY3+Q9UKV8); experiment: competition (fluorogenic siRNA processing); settings: 80 nM BoPsi664, 30 nM each enzyme; Assay Buffer with 1 mM free Mg2+ (full composition not in the material), 37 C; indirect read-out by competitive inhibition of fluorogenic siRNA processing, no …

| Substance | K d,app from a Morrison-equation fit of enzymatic activity: DICER (25 nM) titrated with AGO2, fluorogenic DICER substrate BoGD664 (250 nM), 37°C (DICER (human)) [nM] | K d,app from a Morrison-equation fit of enzymatic activity: DICER (25 nM) titrated with AGO2, fluorogenic DICER substrate BoPD664 (250 nM), 37°C (DICER (human)) [nM] | molar ratio AGO2:DICER at which enzymatic activity on DICER substrates stops rising (titration of DICER, 25 nM, with AGO2) (molar ratio AGO2:DICER) (DICER (human)) | IC50 [1] [nM] |
| --- | --- | --- | --- | --- |
| ARGONAUTE2 (from UniProt Q9UKV8 1-859) (enzyme) | 2.2 | 0.54 | 1 |  |
| AllStars Negative Control siRNA |  |  |  | 209 |
